Source: publication PMC6408514
Blank lines part the entries; values can stand above or below the substance they belong to.

Key:
Experiment in all cases: SEC; SEC-HPLC, Superose 6, PBS pH 7.4, samples at 2 mg/mL; 24-mer assembly
[1] = target: human H-chain ferritin mutant A (Q14A/D15A/R22A) (human)
[2] = target: human H-chain ferritin mutant B (F81A/Q83A) (human)
[3] = target: human H-chain ferritin mutant C (Q14A/D15A/R22A/F81A/Q83A) (human)
[4] = target: human L-chain ferritin mutant D (S5T/T14Q/S22R/L81F/D116E/A119K/A123D following H-Ft numbering) (human)

stoichiometry N [1]: 24
Substance: human H-chain ferritin mutant A (Q14A/D15A/R22A) (natural protein)

stoichiometry N [2]: 24
Substance: human H-chain ferritin mutant B (F81A/Q83A) (natural protein)

stoichiometry N [3]: 24
Substance: human H-chain ferritin mutant C (Q14A/D15A/R22A/F81A/Q83A) (natural protein)

stoichiometry N [4]: 24
Substance: human L-chain ferritin mutant D (S5T/T14Q/S22R/L81F/D116E/A119K/A123D following H-Ft numbering) (natural protein)
